Here are results for one molecule from patent US20040019188A1, “Targeting through integrins” (priority 2000, published 2004).

The experiment concerns the target α5β1 integrin (major fibronectin receptor) on HEp-2 cells (human), P08648.

α5β1 integrin (major fibronectin receptor) on HEp-2 cells (human), P08648, sequence (P08648 42-1049, chain 1 of 2): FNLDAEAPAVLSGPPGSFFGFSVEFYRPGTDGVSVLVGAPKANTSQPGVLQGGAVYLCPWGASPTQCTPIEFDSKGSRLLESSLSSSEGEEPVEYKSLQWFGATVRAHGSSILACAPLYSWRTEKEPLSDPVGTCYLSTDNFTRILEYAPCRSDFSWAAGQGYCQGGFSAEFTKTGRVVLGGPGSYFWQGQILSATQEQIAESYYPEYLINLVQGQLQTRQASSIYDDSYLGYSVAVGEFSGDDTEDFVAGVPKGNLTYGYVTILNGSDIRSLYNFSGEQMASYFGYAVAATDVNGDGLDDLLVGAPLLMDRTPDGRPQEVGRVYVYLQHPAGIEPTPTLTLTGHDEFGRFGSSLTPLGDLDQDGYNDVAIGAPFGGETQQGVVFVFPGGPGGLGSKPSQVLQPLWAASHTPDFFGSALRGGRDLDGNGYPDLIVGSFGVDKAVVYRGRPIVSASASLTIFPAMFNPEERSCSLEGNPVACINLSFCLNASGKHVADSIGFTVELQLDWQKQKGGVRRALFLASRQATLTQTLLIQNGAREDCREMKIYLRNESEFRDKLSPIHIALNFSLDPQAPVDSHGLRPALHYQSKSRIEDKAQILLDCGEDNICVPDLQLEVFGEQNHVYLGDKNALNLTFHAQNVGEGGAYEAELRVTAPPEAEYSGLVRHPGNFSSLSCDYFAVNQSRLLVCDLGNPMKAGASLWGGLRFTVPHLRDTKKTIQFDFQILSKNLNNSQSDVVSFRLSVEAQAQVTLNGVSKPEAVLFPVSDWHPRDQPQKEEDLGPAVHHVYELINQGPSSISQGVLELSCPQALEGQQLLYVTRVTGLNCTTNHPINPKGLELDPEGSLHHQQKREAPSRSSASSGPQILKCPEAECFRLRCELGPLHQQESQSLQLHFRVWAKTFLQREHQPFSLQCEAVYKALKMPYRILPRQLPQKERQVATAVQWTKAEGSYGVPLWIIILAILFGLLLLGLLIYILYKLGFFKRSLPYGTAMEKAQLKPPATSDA
α5β1 integrin (major fibronectin receptor) on HEp-2 cells (human), P08648, sequence (P05556 21-798, chain 2 of 2, further chain): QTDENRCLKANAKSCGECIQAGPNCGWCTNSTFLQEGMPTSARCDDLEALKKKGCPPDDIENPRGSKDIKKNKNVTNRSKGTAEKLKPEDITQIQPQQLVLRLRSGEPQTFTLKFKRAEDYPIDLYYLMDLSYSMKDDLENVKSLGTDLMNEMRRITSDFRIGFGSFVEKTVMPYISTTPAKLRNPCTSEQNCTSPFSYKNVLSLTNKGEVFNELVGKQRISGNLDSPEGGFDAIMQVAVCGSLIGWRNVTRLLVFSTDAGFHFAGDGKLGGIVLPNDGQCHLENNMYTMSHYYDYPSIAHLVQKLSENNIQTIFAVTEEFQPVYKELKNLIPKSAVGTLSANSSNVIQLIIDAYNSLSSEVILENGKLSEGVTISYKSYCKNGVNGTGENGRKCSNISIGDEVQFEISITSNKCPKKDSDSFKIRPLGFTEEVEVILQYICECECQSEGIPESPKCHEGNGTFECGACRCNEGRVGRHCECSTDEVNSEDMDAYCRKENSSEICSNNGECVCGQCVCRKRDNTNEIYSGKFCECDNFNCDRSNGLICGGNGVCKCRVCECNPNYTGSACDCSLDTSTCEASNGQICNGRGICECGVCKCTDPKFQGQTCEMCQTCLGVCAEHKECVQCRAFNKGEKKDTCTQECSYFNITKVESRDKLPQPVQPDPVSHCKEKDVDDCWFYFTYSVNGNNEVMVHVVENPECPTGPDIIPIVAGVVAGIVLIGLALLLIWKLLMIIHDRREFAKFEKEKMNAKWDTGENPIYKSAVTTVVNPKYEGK

B1: RGDS peptide (Gibco) (peptide)
peptide: RGDS
modifications: not checked
Turning to B1, the ID30 came out at 170 µM.
